Measured values as given in US10131691B2, “Compositions and methods for specific regulation of pyruvate dehydrogenase kinase” (THE BOARD OF TRUSTEES OF THE LELAND STANFORD JUNIOR …, priority 2011, dated 2018).
No end group written: not given here.

What was measured:
[1] = molecular target: T1, δPKC phosphorylation of Drp1 (Homo sapiens, UniProt Q05655); test: In vitro kinase assay: δPKC phosphorylation of Drp1; format: biochemical
T1 construct: purchased Invitrogen
Method: In vitro phosphorylation assay. To determine the level of PDK and Drp1 phosphorylation in presence of ΨPDK, δPKC recombinant protein (Invitrogen, Calif., USA; 200 ng) was incubated with or without peptides for 10 min, then 100 ng recombinant PDK2 (Abnova, Taiwan) or Drp1 (Abnova, Taiwan) were added for 20 min at 37° C. in 40 μl of kinase buffer (20 mM Tris-HCl, 20 mM MgCl2, 1 μM DTT, 25 μM ATP, 1 mM CaCl2) containing 5 μCi [γ^32P] ATP (4500 Ci/mmol, ICN) in the presence of the low amount of PKC activators, phosphatidylserine (PS, 1.25 μg) and 1,2 dioleoyl sn-glycerol (DG, 0.04 μg). The kinase assay was terminated by adding loading Laemmli buffer containing 5% SDS and the samples were loaded on a 10% PAGE-SDS polyacrylamide gel, and the levels of phosphorylated PDK2 protein were determined by exposing the nitrocellulose to autoradiography. The nitrocellulose was also reprobed using respective antibodies for loading controls.
Since ΨPDK is derived from a PDK-like sequence in δPKC (FIG. 1B), it was reasoned that this peptide should act as a competitive inhibitor, selective for δPKC phosphorylation of PDK. To test this hypothesis directly, an in vitro kinase assay in which the ability of δPKC to phosphorylate PDK is determined was used.

δPKC = molecular target: T2, δPKC (Rattus norvegicus, UniProt P09215); test: δPKC translocation into mitochondria in intact hearts (ex vivo I/R)
T2 construct: from tissue; host or cells: rat heart (ex vivo ischemia/reperfusion), mitochondrial fraction
Method: (§1) An ex vivo model of acute ischemic heart damage was used, which involves a 30 min equilibration period, followed by 30 min of global ischemia, which in turn is followed by 60 min of reperfusion. The hearts were perfused with 1 μM TAT or TAT-conjugated peptide. Normoxic control hearts were subjected to 90 min perfusion in the absence of ischemia. Coronary effluent was collected to determine creatine phosphokinase (CPK) release during the first 30 min of the reperfusion period. At the end of the reperfusion period, hearts were sliced into 1-mm-thick transverse sections and incubated in triphenyltetrazolium chloride solution (TTC, 1% in phosphate buffer, pH 7.4) at 37° C. for 15 min. Infarct size was expressed as a percentage of the risk zone (equivalent to total LV muscle mass) (methods described in Brandman et al., 2007, J. Biol. Chem., 282:4113-4123; Inagaki et al., 2003, Circulation, 108:869-875).
Rat hearts were homogenized in a buffer containing 210 mM mannitol, 70 mM sucrose, 5 mM MOPS and 1 mM EDTA followed by isolation of the mitochondria fraction (described in Churchill et al., 2008, J. Mol. Cell. Cardiol., 46:278-284) and identified by the presence of VDAC (MitoSciences, Eugene, Oreg., USA). The level of phosphorylated and unphosphorylated JNK1/2 was analyzed in the total fraction using respective specific antibodies (Cell Signaling, Danvers, Mass. and Santa Cruz Biotechnology, CA, USA). […]
Phosphorylation of the mitochondrial PDK by δPKC occurs only following myocardial infarction Under these conditions, δPKC translocates into the mitochondria (Churchill et al., 2005, Circ. Res., 97:78-85) where it has access to PDK. It was therefore first determined whether ΨPDK peptide affects δPKC translocation into the mitochondria. […] However, similar to the mitochondrial matrix protein, aldehyde dehydrogenase (ALDH2), the majority of δPKC was insensitive to proteolysis by PK (FIG. 4C; quantitated in FIG. 4D).

ALDH2 = test: 2-D IEF phosphorylation of ALDH2 in hearts after I/R; design: species or system rat; conditions: cardiac I/R
Method: as §1
2-D IEF/SDS polyacrylamide gel electrophoresis using rat heart samples was performed as previously described (Chen et al., 2008, Science, 321:1493-1495). 10% SDS gel electrophoresis and Western blotting were carried out by standard methods using PDK2 c-term rabbit (Abgent, Calif., USA), PDH subunit E1 alpha monoclonal (Invitrogen, Calif., USA) and ALDH2 goat (Santa Cruz Biotechnology, CA, USA) antibodies. […]

Drp1 = Drp1 phosphorylation in hearts subjected to I/R; design: species or system rat
Method: as §1

T2 sequence (P09215 whole entry, the tested form may be a part): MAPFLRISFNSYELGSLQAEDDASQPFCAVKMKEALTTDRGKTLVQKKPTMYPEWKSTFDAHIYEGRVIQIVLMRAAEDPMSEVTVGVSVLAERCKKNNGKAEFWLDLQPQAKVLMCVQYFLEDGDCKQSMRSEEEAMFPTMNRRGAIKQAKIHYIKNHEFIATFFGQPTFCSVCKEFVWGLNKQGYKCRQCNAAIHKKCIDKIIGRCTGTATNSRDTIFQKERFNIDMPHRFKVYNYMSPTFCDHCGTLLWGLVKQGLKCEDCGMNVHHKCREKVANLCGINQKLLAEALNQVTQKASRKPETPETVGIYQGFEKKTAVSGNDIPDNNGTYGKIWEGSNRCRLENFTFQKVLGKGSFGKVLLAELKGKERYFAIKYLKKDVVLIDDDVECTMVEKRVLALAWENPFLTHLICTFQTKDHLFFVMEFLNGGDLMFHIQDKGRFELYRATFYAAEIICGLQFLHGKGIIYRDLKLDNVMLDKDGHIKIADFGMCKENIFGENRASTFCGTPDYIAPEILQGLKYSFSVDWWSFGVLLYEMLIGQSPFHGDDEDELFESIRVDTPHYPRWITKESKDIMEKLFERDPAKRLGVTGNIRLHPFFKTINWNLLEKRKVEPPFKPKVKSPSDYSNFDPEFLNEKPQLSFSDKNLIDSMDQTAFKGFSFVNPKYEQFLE
T1 sequence (Q05655 whole entry): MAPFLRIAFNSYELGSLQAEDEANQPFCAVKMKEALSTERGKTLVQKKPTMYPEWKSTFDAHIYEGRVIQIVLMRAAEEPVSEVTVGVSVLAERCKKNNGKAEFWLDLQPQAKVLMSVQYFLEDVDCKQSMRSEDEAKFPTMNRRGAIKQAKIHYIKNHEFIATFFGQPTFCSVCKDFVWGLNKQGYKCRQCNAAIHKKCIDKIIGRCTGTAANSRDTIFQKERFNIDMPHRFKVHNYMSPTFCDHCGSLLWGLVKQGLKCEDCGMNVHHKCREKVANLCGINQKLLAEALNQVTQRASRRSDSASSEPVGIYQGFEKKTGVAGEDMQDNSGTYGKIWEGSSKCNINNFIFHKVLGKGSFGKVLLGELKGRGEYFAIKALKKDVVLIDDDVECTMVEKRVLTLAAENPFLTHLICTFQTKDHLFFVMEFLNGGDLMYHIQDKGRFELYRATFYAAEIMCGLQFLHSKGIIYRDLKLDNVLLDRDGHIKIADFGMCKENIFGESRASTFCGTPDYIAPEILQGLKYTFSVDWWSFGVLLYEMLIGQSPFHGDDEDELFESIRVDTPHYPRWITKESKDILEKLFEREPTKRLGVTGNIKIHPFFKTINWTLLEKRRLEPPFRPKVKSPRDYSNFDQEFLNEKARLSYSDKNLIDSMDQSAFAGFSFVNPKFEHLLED

In the case of “ALSTER (not fully specified (C-terminus); also: TAT47-57 conjugated via disulfide) [ΨPDK, for cells and hearts conjugated to TAT47-57 via disulfide bond]”, the “Drp1 phosphorylation by δPKC” value [1] is reported as “did not affect Drp1 phosphorylation”, the “δPKC entry into the mitochondria (proteinase K resistance)” value (δPKC; following I/R) is reported as “increased I/R-induced δPKC entry into the mitochondria” and the “δPKC association with the mitochondria” value (δPKC; following I/R, vs control peptide) is reported as “two-fold increase”. For the same substance, the “δPKC translocation to the mitochondria” value (δPKC; normoxic condition) was “did not induce δPKC translocation to the mitochondria”, the ALDH2 phosphorylation (ALDH2) was “neither ΨPDK nor δV1-1 affected ALDH2 phosphorylation” and the Drp1 phosphorylation (Drp1) was “caused an increase of Drp1 phosphorylation”.
